In patent publication US20220411531A1 (SUMGEN MAB BEIJING BIOTECH, published 2022):
Numbering of substitutions follows the chain as printed. One block for each binder: values may come before it.

What was measured:
[1] = molecular target: T1, AXL on the surfaces of human tumour cells (A549, MDA-MB-231, 786-O) (human, UniProt P30530 27-894); test: flow cytometry on 786-O cells (second experiment, FIG. 10); 786-O cells; FIG. 10
T1 construct: Endogenous AXL on human tumour cell lines; The tie to the cell-line protein rests on this general definition only; also called cell surface antigen
T1 sequence: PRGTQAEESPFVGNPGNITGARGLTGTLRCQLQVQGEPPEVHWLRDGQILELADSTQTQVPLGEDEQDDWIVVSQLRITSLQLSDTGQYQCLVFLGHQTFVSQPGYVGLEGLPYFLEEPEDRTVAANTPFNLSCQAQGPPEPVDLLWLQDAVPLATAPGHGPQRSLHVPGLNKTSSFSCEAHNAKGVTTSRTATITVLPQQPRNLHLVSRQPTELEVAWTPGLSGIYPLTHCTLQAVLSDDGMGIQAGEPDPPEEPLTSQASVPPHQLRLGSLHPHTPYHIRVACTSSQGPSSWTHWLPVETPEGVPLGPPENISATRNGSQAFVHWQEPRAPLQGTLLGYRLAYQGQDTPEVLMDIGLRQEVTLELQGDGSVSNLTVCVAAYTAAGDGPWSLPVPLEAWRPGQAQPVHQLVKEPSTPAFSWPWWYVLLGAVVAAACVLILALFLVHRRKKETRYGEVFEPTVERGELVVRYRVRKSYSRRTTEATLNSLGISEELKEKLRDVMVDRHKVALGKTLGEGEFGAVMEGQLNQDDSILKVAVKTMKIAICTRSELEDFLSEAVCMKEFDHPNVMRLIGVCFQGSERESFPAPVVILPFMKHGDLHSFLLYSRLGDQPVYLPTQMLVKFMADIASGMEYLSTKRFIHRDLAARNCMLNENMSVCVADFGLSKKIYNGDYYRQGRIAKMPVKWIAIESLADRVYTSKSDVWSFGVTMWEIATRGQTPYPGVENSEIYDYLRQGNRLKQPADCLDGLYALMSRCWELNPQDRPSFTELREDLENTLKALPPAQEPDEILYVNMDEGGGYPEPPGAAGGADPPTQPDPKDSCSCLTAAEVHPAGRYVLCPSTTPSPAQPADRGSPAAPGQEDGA
Protocol: (§1) Cells in a logarithmic growth phase were collected; the cell density was regulated to 5×10⁶ cells/mL; and pre-cooling was performed on ice. The antibodies 6G12M11, 6G12M21, 6G12M31, and 6G12M41 were diluted to 20 μg/ml with pre-cooled normal saline containing 2% FBS. 100 μl of cells were taken, and an equal volume of each of the foregoing diluted antibodies was added to the cells to react for 30 minutes at 4° C. in the dark. After the completion of reaction, the cells were washed twice with pre-cooled physiological saline containing 2% FBS (6000 rpm, 45 s). The secondary antibody PE Mouse Anti-Human IgG (BD Pharmingen) was diluted at 1:5 with pre-cooled physiological saline containing 2% FBS, and 100 μL of the secondary antibody was taken for resuspending the cells, with a reaction conducted for 30 minutes at 4° C. in the dark. After the reaction, the cells were washed twice with pre-cooled physiological saline containing 2% FBS (6000 rpm, 45 s). The cells were resuspended by using 400 μl of 1% paraformaldehyde. The binding of antibodies to cell surface antigens was analyzed by means of a flow cytometer (BD Calibur).

[2] = molecular target: T1, AXL on the surfaces of human tumour …; test: flow cytometry on MDA-MB-231 cells (second experiment, FIG. 9); MDA-MB-231 cells; FIG. 9
Protocol: as §1

[3] = molecular target: T1, AXL on the surfaces of human tumour …; test: flow cytometry on A549 cells
Protocol: as §1

[4] = molecular target: T1, AXL on the surfaces of human tumour …; test: flow cytometry on 786-O cells
Protocol: as §1

[5] = molecular target: T1, AXL on the surfaces of human tumour …; test: flow cytometry on MDA-MB-231 cells
Protocol: as §1

[6] = molecular target: T1, AXL on the surfaces of human tumour …; test: flow cytometry on 786-O cells (second experiment, FIG. 10); 786-O cells; second experiment, FIG. 10
Protocol: as §1

[7] = molecular target: T1, AXL on the surfaces of human tumour …; test: flow cytometry on MDA-MB-231 cells (second experiment, FIG. 9); MDA-MB-231 cells; second experiment, FIG. 9
Protocol: as §1

B1: antibody 6G12M31 (antibody, V domains shown)
VH: QVQLVQSGPGLVKPSQSLSLTCSVTGFSISSGYYWNWIRQFPGQKLEWMGYRSYDGSNNYDPSLKNRISITRDTSKNQFFLKLNSVTSEDTATYYCARGWLLHYTMDYWGQGTTVTVSS
VL: DIVMTQSPSSVSVTLGQSASISCRSSRSLLHSNGFTYLYWYLQKPGQSPQLLIYQMSNLASGVPDRFSGSGSGTDFTLKISRVEAEDVGVYYCGQNLELPLTFGGGTKLEIK
EC50 [1]: 0.53 µg/mL
EC50 [2]: 0.6 µg/mL

B2: antibody 6G12M11 (antibody, human IgG1, kappa, V domains shown)
VH: B1 VH with S23A, D61N
VL: EIVMTQSPSSVSVTLGQSASISCRSSRSLLHSNGFTYLYWYLQKPGQSPQLLIYQMSNLASGVPDRFSGSGSGTDFTLKISRVEAEDVGVYYCGQNLELPLTFGGGTKLEIKR
EC50 [3]: 0.46 µg/mL
EC50 [4]: 0.43 µg/mL
EC50 [5]: 0.59 µg/mL

Results, then the binder that gave them:

EC50 [1]: 0.47 µg/mL
EC50 [2]: 0.54 µg/mL
B3: antibody 6G12M41 (antibody, V domains shown)
VH: B1 VH with D61G
VL: B1 VL

EC50 [3]: 0.78 µg/mL
EC50 [4]: 0.31 µg/mL
EC50 [5]: 0.39 µg/mL
EC50 [6]: 0.4 µg/mL
EC50 [7]: 0.64 µg/mL
B4: antibody 6G12M21 (antibody, human IgG1, kappa, V domains shown)
VH: B1 VH with D61N
VL: B2 VL with E1D
